Test results reported in paper PMC12667517, “Gigaxonin Potentiates Antiviral Innate Immune Responses by Targeting cGAS and TREX1” (Advanced Science, 2025).

T1: endogenous IRF3 in THP-1 cells (human (endogenous in THP-1)), Q14653
T1 chain: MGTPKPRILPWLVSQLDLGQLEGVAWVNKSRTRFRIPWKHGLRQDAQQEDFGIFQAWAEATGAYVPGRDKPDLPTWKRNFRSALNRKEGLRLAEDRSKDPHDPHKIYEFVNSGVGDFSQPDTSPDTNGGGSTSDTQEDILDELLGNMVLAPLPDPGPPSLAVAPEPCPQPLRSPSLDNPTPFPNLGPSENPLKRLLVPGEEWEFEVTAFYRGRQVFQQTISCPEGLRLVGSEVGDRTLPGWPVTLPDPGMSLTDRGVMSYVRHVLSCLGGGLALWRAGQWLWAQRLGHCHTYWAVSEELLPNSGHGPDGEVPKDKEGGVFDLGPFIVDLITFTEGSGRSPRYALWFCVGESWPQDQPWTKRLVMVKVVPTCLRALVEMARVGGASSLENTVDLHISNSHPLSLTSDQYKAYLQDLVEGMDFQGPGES

B1: endogenous IRF3 in THP-1 cells, Q14653 1-427 (natural protein)
chain: MGTPKPRILPWLVSQLDLGQLEGVAWVNKSRTRFRIPWKHGLRQDAQQEDFGIFQAWAEATGAYVPGRDKPDLPTWKRNFRSALNRKEGLRLAEDRSKDPHDPHKIYEFVNSGVGDFSQPDTSPDTNGGGSTSDTQEDILDELLGNMVLAPLPDPGPPSLAVAPEPCPQPLRSPSLDNPTPFPNLGPSENPLKRLLVPGEEWEFEVTAFYRGRQVFQQTISCPEGLRLVGSEVGDRTLPGWPVTLPDPGMSLTDRGVMSYVRHVLSCLGGGLALWRAGQWLWAQRLGHCHTYWAVSEELLPNSGHGPDGEVPKDKEGGVFDLGPFIVDLITFTEGSGRSPRYALWFCVGESWPQDQPWTKRLVMVKVVPTCLRALVEMARVGGASSLENTVDLHISNSHPLSLTSDQYKAYLQDLVEGMDFQGPGES
B2: endogenous gigaxonin in THP-1 cells (natural protein, human (endogenous in THP-1), UniProt Q9H2C0 1-597, looked up)
chain: MAEGSAVSDPQHAARLLRALSSFREESRFCDAHLVLDGEEIPVQKNILAAASPYIRTKLNYNPPKDDGSTYKIELEGISVMVMREILDYIFSGQIRLNEDTIQDVVQAADLLLLTDLKTLCCEFLEGCIAAENCIGIRDFALHYCLHHVHYLATEYLETHFRDVSSTEEFLELSPQKLKEVISLEKLNVGNERYVFEAVIRWIAHDTEIRKVHMKDVMSALWVSGLDSSYLREQMLNEPLVREIVKECSNIPLSQPQQGEAMLANFKPRGYSECIVTVGGEERVSRKPTAAMRCMCPLYDPNRQLWIELAPLSMPRINHGVLSAEGFLFVFGGQDENKQTLSSGEKYDPDANTWTALPPMNEARHNFGIVEIDGMLYILGGEDGEKELISMECYDIYSKTWTKQPDLTMVRKIGCYAAMKKKIYAMGGGSYGKLFESVECYDPRTQQWTAICPLKERRFGAVACGVAMELYVFGGVRSREDAQGSEMVTCKSEFYHDEFKRWIYLNDQNLCIPASSSFVYGAVPIGASIYVIGDLDTGTNYDYVREFKRSTGTWHHTKPLLPSDLRRTGCAALRIANCKLFRLQLQQGLFRIRVHSP
notes: By native PAGE both dimer and monomer in the steady state; source: endogenous, THP-1 lysate

Columns and labels:
[1] = biological target: T1, endogenous IRF3 in THP-1 cells (human …); assay: native gel or EMSA; native PAGE of THP-1 cell lysates, cells infected with HSV-1 (MOI = 1) for the indicated times; settings: remark: other sources report otherwise
[2] = biological target: the molecule itself; assay: as above

Binder | stoichiometry N [1] | stoichiometry N [2]
B1 | 2 | 
B2 |  | 2
